This is an account of results in PMC5703284 (Proceedings of the National Academy of Sciences of the …, 2017).

What is called Kd is the constant that tells how readily two partners part at equilibrium. High values mean a looser complex, low ones a tighter complex.

One experiment concerns the target human ActRIIA-Fc protein (human, UniProt P27037).
The next experiment deals with T1, human ActRIIB-Fc protein (human, UniProt Q13705).
T1 sequence: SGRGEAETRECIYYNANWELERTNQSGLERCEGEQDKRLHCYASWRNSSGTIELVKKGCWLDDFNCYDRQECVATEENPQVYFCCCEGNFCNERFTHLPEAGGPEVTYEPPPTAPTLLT

Chain of human ActRIIA-Fc protein (P27037 20-135): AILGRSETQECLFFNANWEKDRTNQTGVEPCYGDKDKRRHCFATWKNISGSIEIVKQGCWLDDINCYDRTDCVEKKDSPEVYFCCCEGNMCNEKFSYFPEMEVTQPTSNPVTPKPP

B1: activin A (ligand)
chain: GLECDGKVNICCKKQFFVSFKDIGWNDWIIAPSGYHANYCEGECPSHIAGTSGSSLSFHSTVINHYRMRGHSPFANLKSCCVPTKLRPMSMLYYDDGQNIIKKDIQNMIVEECGCS
For B1, the Kd in the experiment with human ActRIIA-Fc protein turned out to be 5.3 pM; with human ActRIIB-Fc protein, 6.5 pM.
